# Assay results published in patent publication US9012420B2, “Aptamer for chymase, and use thereof” (Ribomic Inc., priority 2009, dated 2015).
# T1: chymase (Homo sapiens, UniProt P23946 P23946:22-247)
# T1 sequence: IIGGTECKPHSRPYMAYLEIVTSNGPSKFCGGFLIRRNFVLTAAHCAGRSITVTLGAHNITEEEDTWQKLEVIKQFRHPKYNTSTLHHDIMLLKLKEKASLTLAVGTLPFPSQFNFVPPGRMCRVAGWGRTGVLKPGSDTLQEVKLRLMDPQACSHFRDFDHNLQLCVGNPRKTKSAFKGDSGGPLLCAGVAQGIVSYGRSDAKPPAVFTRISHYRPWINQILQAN
# T2: chymase (recombinant) (UniProt P23946 P23946:22-247)
# T2 sequence: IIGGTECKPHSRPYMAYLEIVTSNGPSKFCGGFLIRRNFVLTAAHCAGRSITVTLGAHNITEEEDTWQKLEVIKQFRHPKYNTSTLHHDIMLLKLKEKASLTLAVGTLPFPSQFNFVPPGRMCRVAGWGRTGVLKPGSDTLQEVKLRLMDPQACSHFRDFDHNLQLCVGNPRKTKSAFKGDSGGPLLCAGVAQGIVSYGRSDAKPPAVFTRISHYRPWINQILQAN
# T3: chymase (native, human skin mast cell) (Homo sapiens, UniProt P23946 P23946:22-247)
# T3 sequence: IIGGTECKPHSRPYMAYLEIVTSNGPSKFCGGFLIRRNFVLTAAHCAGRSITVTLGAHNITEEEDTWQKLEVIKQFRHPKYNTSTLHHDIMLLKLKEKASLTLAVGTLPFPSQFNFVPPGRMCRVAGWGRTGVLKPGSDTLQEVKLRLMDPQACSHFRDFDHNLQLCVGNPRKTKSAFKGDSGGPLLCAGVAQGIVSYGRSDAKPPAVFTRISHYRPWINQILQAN
# Tests used:
# [1] = target: T1, chymase; experiment: inhibition; angiotensin I; recombinant 0.456; conditions: tags: human skin mast cell, Calbiochem
# Protocol: (§1) The total volume of solution for an enzyme reaction in the assay was set to 50 μL, and the reaction was performed in solution C buffer. First, 0.3-0.75 ng of chymase (recombinant, (manufactured by SIGMA) or native (manufactured by Calbiochem)) was diluted with solution C to give 5 μL thereof. Here, the recombinant is chymase expressed by yeast, and the native is chymase purified from human skin mast cell. The nucleic acid was serially diluted with solution C at a concentration of 0.0027-2 μM to give 25 μL thereof. The chymase solution (5 μL) and the nucleic acid solution (25 μL) were mixed, and the mixture was incubated at 37° C. for 5 min. […] The whole mixture was centrifuged at 4° C., 14000 rpm for 10 min, and the supernatant (30 μL) was used for the next fluorescence induction reaction.
# (§2) The above-mentioned supernatant (30 μL) was added to a 96 well plate (black, manufactured by Costar), a solution (15 μL) of 2% o-phthalaldehyde (manufactured by SIGMA) in methanol and 0.3M NaOH solution (170 μL) were added to each well, and the mixture was incubated at room temperature for 10 min. […] The plate was set on a microplate reader SpectraMax190 (manufactured by Molecular device) and the fluorescence intensity was measured at an excitation wavelength of 355 nm and a fluorescence wavelength of 460 nm.
# [2] = target: T1, chymase; experiment: inhibition; angiotensin I; recombinant 0.446; conditions: tags: human skin mast cell, Calbiochem
# Protocol: as §1, §2
# [3] = target: T2, chymase (recombinant); experiment: inhibition; SPR not determined; conditions: tags: SIGMA, expressed in yeast
# Protocol: (§3) Here, Suc is a protecting succinyl group, and MCA is a 4-methylcoumaryl-7-amide group; upon cleavage of the C-terminal side of phenylalanine, AMC (7-amino-4-methyl-coumarine) is released. By detecting the fluorescence of this AMC, the enzyme activity of chymase can be determined. The assay was performed using a 96-well plate (F16 Black Maxisorp Fluoronunc, manufactured by Nunc), with a reaction mixture volume of 100 μL, in solution C as a buffer solution. First, each nucleic acid was serially diluted to 0.0027-2 μM concentrations in solution C to obtain 50 μL solutions. After 10 μL of the 1 mM substrate prepared in solution C was added thereto, the plate was set to the microplate reader SpectraMax190 (manufactured by Molecular Devices Corporation), and incubated at 37° C. for 5 minutes. Separately, 0.05 μg (or 0.005 μg) of chymase (recombinant, manufactured by SIGMA) was diluted in solution C to obtain a 40 μL chymase solution, and incubated at 37° C. for 5 minutes. […] The plate containing the reaction mixture was set to the microplate reader SpectraMax190 (manufactured by Molecular Devices Corporation), and examined for time-dependent changes in the fluorescence intensity at 37° C. for 5 minutes (or 30 minutes) (excitation wavelength 380 nm, detection wavelength 460 nm). A linear approximation of the increase in the fluorescence of the AMC released from the substrate by chymase activity was generated, and its slope was taken as the initial velocity ($Vmax$). For control, samples were treated and analyzed in the same manner in two cases: use of a 30N or 40N (a nucleotide of 30 or 40 consecutive bases represented by N; N is A, G, C or T) nucleic acid pool (negative control), and use of chymostatin, a known chymotrypsin-like serine protease inhibitor (positive control). Taking the initial reaction velocity without the nucleic acid and inhibitor (V_0) as a 100% enzyme activity, the inhibitory rate of each test substance was calculated using the following equation: […]
# (§4) The chymase inhibitory activity was measured in the same manner as in Example 3.
# [4] = target: T1, chymase; experiment: inhibition; angiotensin I; recombinant 0.274; conditions: tags: human skin mast cell, Calbiochem
# Protocol: as §1, §2
# [5] = target: T2, chymase (recombinant); experiment: inhibition; SPR ++; conditions: tags: SIGMA, expressed in yeast
# Protocol: (§5) Here, Suc is a protecting succinyl group, and MCA is a 4-methylcoumaryl-7-amide group; upon cleavage of the C-terminal side of phenylalanine, AMC (7-amino-4-methyl-coumarine) is released. By detecting the fluorescence of this AMC, the enzyme activity of chymase can be determined. The assay was performed using a 96-well plate (F16 Black Maxisorp Fluoronunc, manufactured by Nunc), with a reaction mixture volume of 100 μL, in solution C as a buffer solution. First, each nucleic acid was serially diluted to 0.0027-2 μM concentrations in solution C to obtain 50 μL solutions. After 10 μL of the 1 mM substrate prepared in solution C was added thereto, the plate was set to the microplate reader SpectraMax190 (manufactured by Molecular Devices Corporation), and incubated at 37° C. for 5 minutes. Separately, 0.05 μg (or 0.005 μg) of chymase (recombinant, manufactured by SIGMA) was diluted in solution C to obtain a 40 μL chymase solution, and incubated at 37° C. for 5 minutes. The chymase solution was added to the mixture of the nucleic acid and substrate to initiate an enzyme reaction. The final chymase concentration in the reaction mixture was 16.7 nM (or 1.67 nM), the final substrate concentration being 100 μM. The plate containing the reaction mixture was set to the microplate reader SpectraMax190 (manufactured by Molecular Devices Corporation), and examined for time-dependent changes in the fluorescence intensity at 37° C. for 5 minutes (or 30 minutes) (excitation wavelength 380 nm, detection wavelength 460 nm). A linear approximation of the increase in the fluorescence of the AMC released from the substrate by chymase activity was generated, and its slope was taken as the initial velocity […]. For control, samples were treated and analyzed in the same manner in two cases: use of a 30N or 40N (a nucleotide of 30 or 40 consecutive bases represented by N; N is A, G, C or T) nucleic acid pool (negative control), and use of chymostatin, a known chymotrypsin-like serine protease inhibitor (positive control). Taking the initial reaction velocity without the nucleic acid and inhibitor (V_0) as a 100% enzyme activity, the inhibitory rate of each test substance was calculated using the following equation: […]
# [6] = target: T3, chymase (native, human skin mast cell); experiment: inhibition; angiotensin I substrate; recombinant 0.041 uM; conditions: tags: Calbiochem
# Protocol: as §1, §2
# [7] = target: T2, chymase (recombinant); experiment: inhibition; SPR ++; 0.027 uM in Table 6; conditions: tags: SIGMA, expressed in yeast; stem-loop (MFOLD)
# Protocol: as §3, with “minutes.” for “minutes. Separately, 0.05 μg (or 0.005 μg) of chymase (recombinant, manufactured by SIGMA) was diluted in solution C to obtain a 40 μL chymase solution, and incubated at 37° C. for 5 minutes.”, “($Vmax$).” for “($Vmax$). For control, samples were treated and analyzed in the same manner in two cases: use of a 30N or 40N (a nucleotide of 30 or 40 consecutive bases represented by N; N is A, G, C or T) nucleic acid pool (negative control), and use of chymostatin, a known chymotrypsin-like serine protease inhibitor (positive control). Taking the initial reaction velocity without the nucleic acid and inhibitor (V_0) as a 100% enzyme activity, the inhibitory rate of each test substance was calculated using the following equation:”
# Chymase inhibitory activity was determined in the same manner as Example 3.
# [8] = target: T3, chymase (native, human skin mast cell); experiment: inhibition; angiotensin I substrate; recombinant 0.235 uM; conditions: tags: Calbiochem, stem-loop (MFOLD)
# Protocol: as §1, §2
# [9] = target: T1, chymase; experiment: inhibition; angiotensin I; recombinant 0.361; conditions: tags: human skin mast cell, Calbiochem
# Protocol: as §1, §2
# [10] = target: T1, chymase; experiment: inhibition; Suc-AAPF-MCA, 37 C, solution C; conditions: tags: recombinant, expressed in yeast, SIGMA
# Protocol: as §5, §4
# [11] = target: T1, chymase; experiment: inhibition; angiotensin I; recombinant 0.022; conditions: tags: human skin mast cell, Calbiochem
# Protocol: as §1, §2
# [12] = target: T2, chymase (recombinant); experiment: inhibition; Suc-AAPF-MCA, solution C, 37 C; SPR ++; conditions: tags: SIGMA, expressed in yeast
# Protocol: as §3, with “minutes.” for “minutes. Separately, 0.05 μg (or 0.005 μg) of chymase (recombinant, manufactured by SIGMA) was diluted in solution C to obtain a 40 μL chymase solution, and incubated at 37° C. for 5 minutes.”, “($Vmax$).” for “($Vmax$). For control, samples were treated and analyzed in the same manner in two cases: use of a 30N or 40N (a nucleotide of 30 or 40 consecutive bases represented by N; N is A, G, C or T) nucleic acid pool (negative control), and use of chymostatin, a known chymotrypsin-like serine protease inhibitor (positive control). Taking the initial reaction velocity without the nucleic acid and inhibitor (V_0) as a 100% enzyme activity, the inhibitory rate of each test substance was calculated using the following equation:”
# [13] = target: T3, chymase (native, human skin mast cell); experiment: inhibition; angiotensin I substrate, solution C, 37 C; recombinant 0.003 uM; conditions: tags: Calbiochem
# Protocol: as §1, §2
binder,measurement,setting,value
"GGGUUAGAUAGAGUUAAAAACCC (ssRNA, 2'-F U and C; 5' PEG 40 kDa; 3' idT) [56(17)]",IC50,[1],613 nM
"GGGUAACUAUGGUUAGAUAGAGUUAAAAACCAUAGAAGACCC (ssRNA, 2'-F U and C) [SEQ 53]",IC50,[2],764 nM
"AAAGGGUUAGAUAGAGUUAAAAACCC (ssRNA, PEG-A(M)A(M)A(M)G(M)G(M)G(M)U(F)U(F)AG(M)A(M)U(F)A(M)GAG(M)U(F)U(F)A(M)A(M)A(M)A(M)A(M)C(F)C(F)C(F)-idT (M=2'-OMe, F=2'-F)) [SEQ 69]",IC50,[3],91 nM
"GGGTTAGAUAGAGTUAAAAACCC (mixed, B-idT-G(M)G(M)G(M)ttAG(M)aU(F)A(M)GAG(M)tU(F)A(M)A(M)A(M)A(M)A(M)ccc-idT (lower case DNA, B=biotin)) [72(8)]",IC50,[3]; label: biotin,18 nM
"GGCAGAUAGAGUUAAAGCC (ssRNA, 2'-F U and C) [SEQ 65]",IC50,[4],878 nM
"SEQ 13 (ssRNA, 2'-F pyrimidines) RNA: GGGACGGUAGGAAUUCCGCAACCAUCCCGUAACUAUGGUUAGAUAGAGUUAAAAACCAUAGAAGAGCGGCCGC",IC50,[5],58 nM
same,IC50,[6],74 nM
"GGGUUAGAUAGAGUUAAAAACCC (ssRNA, 2'-F pyrimidines) [SEQ 56]",IC50,[7],46 nM
same,IC50,[8],508 nM
"GGGUUAGAUAGAGUUAAAAACCC (ssRNA, 2'-F U and C; 2'-OMe 1-3,7,8,10,13,16-20) [56(21)]",IC50,[9],722 nM
same,IC50,[10],45 nM
"SEQ 14 (ssRNA, 2'-F U and C) RNA: GGGACGGUAGGAAUUCUCGUUCCUGACAGCAUUUGAGAUAGAUUUAAACAAACGCACAUAGAAGAGCGGCCGC",IC50,[11],63 nM
"SEQ 4 (ssRNA, 2'-F pyrimidines) RNA: GGGACGGUAGGAAUUCGUCCAUUCUACAGAUAGAGAUAAAGUAGAAUUUAACAAAACAUAGAAGAGCGGCCGC",IC50,[12],49 nM
same,IC50,[13],31 nM
